{"source": "patent US20120009162A1", "about": "(published 2012)", "binders": {"B1": {"name": "TCR of the Aur-A-specific CTL clone AUR-1 (SEQ ID NOs 1 and 2) (TCR, V domains shown)", "Valpha": "AQSVAQPEDQVNVAEGNPLTVKCTYSVSGNPYLFWYVQYPNRGLQFLLKYITGDNLVKGSYGFEAEFNKSQTSFHLKKPSALVSDSALYFCAVRDSNSNDYKLSFGAGTTVTVRA", "Vbeta": "DAGITQSPRHKVTETGTPVTLRCHQTENHRYMYWYRQDPGHGLRLIHYSYGVKDTDKGEVSDGYSVSRSKTEDFLLTLESATSSQTSVYFCAISESSFAQPMNTEAFFGQGTRLTVV"}}, "biological_target": "T1, Aurora-A kinase (Aur-A) peptide on HLA-A*02:01 (human)", "T1 peptide": "YLILEYAPL", "experiment": "multimer staining"}
{"binder": "B1", "values": [{"measurement": "binding result", "result": "recognises"}]}
